Results reported in the nanobody polyreactivity screen of Harvey et al. (2022).

Test: yeast display, Sf9 membrane polyspecificity reagent, FACS + sequencing; frameworks hold sequencing errors
In short: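 Nanobodies from a synthetic yeast display library (Saccharomyces cerevisiae BJ5465), induced 36–48 hours with galactose, were stained 1 hour at 4 °C with 10% biotinylated, detergent-solubilized Sf9 membrane reagent, enriched on streptavidin microbeads, then FACS-sorted. Anti-HA (expression) and streptavidin (reagent binding) fluorescence set low and high (top ~1%) gates. Polyreactivity labels come from the gate of origin. Genes were colony-PCR amplified, MiSeq 2 × 250 sequenced and filtered by CDR length.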

Row | Sequence | polyreactivity (PSR sort gate)
1 | QVQLVESGGGLVQAGGRLRLSCAASGSTFYSNAMGWYRQAPGKERELVASIRFSGVITTYADSVKGRFTISRDNAKNTVYLQMNSLKPEDTAVYYCDAGYLSTTAYDYWGQGTQVTVSS | low polyreactivity
2 | QVHLVESGGGLVQAGGSLRLSSAASGRTLSRYAMGWYRQAPGKERELGASISWSGGRTYYADSVKGRFTISRDNAKNTVYLQMNSLKPEDTAVYYCAAVYVTAPFDYWGQGTQVTVSS | low polyreactivity
3 | QVQLVESGGGLVQAGGSLRLSCAASGRILTYYAMGWYRPAPGKERELVAAISWRAGSTYYADSVKGRFTISRDNAKNTVYLQMNSLKPEDTAVYYCAADLPYWYNRKPIFPYYYWGQGTQVTVSS | high polyreactivity
4 | QVQLVESGGGLFQAGGSLRLSCAASGFIFLLNAMGWYRQAPGKERELVAAINSDGSTNYADSVKGRFTISRDNAKNTFYLQMNSLKPEDTGVYYCAARSFTLRGYDYWGQGTQVTVSS | low polyreactivity
5 | QVQLVESGGGLVQAGGSLRLSCAASGSIFESNAMGWYRQAPGKERELVAAYADSVKGRFTISRDNAKNTVYLQMNSLKPEDTAVYYCAKSLSLYVVPLYEYWGQGTQVTVSS | low polyreactivity
6 | QVQLVESGGGLVQAGGSLRLSCAASGITFSYYAMGWYRQAPGKERELVATIRSSGGSTYYADSVKGRFTISRDNAKNTVYLQMNSLKPEDTAVYYCAVRLWFDYNYWGQGTQVTVSS | low polyreactivity
7 | QVQLVESGGGLVQAGGSLRLSCAASGRTLHANTMGMYRQAPGKERELVAAITRGGGNTYYADSVKGRFTISRDNAKNTVYLQMNSLKPEDTAVYYCNADVSGYLWYEYDYWGQGTQVTVSS | low polyreactivity
8 | QVQLVESGGGLVQAGGSLRLSCAASGFNFVHYAMGWYRPAPGKDRELVAAISKRGGTTYYADSVKGRFTISRDNAKNTVYLQMNSLKPEDSAVYYCNADVTNWEDDYYYWGQGTQVNVSS | high polyreactivity
9 | QVQLVESGGGLVQAGGSLRLSCAASGSNFRTYPIGWYRQAPGKERELVAAISSNGGSTYYADSVKGRFTISRDNAKNTVYLQMNSLKPEDTAVYYCANDQTGYWYNRYGYWGQGTQVTVSS | low polyreactivity
10 | QVQLVESGSGLVQAGGSLRLSCAASGSIFVNYGMGRYRQAPGKERELVAAINRNGGRTYYADSVKGRFTISRDNAKNTVYLQMNSLKPEDTAVYYCNALYPGGLSLSRLDYWGQGTQVTVSS | high polyreactivity
11 | QVQLVESGGGLVQAGGSLRLSCAASGAIFGGYAMGWYRQAPGKERELVAAISSGGSTNYADSVKGRFTISRDNAKNTVYLQMNSLKPEDTAVYYCAVRGRLPHARQRGYVPKYYYWGQGTQVTVSS | high polyreactivity
12 | QVQLVESGGGLVQAGGSLRLSCAASGIIFGVYAMGWYRQAPGKERELVAAISRSGDSTYYADSVKGRFTISRDNAKNTVYLQMNSLKPEDTAVYYCAAEWYITFDYWGQGTQVTVSS | low polyreactivity
13 | QVQLVESGGGLVQAGGSLRLSCAASGSTFYPYSMGWYRQAPGKERELSTYADSVKGRFTISRDNAKNSVYLQMNSLKPEDTAVYYCAALHWRWYDYWGQGTQVTVSS | low polyreactivity
14 | QVQLVESGGGLVQAGGSLRLSCAASGFIFTLYAMGWYRQAPGKESELVASISSGGSTNYADSVKGRFTISRDNAKNTVYFQMNSLKPEDTAVYYCAAYYYFKSDRFSGRYGRYYWGQGTQVTVSS | high polyreactivity
15 | PVQLVESGGGLVQAGGSLRLSCAASGSIFCYYTMGWYRQAPGKERELVASIDYSGVSTYYADSVKGRFTISRDNAKNTVYLQMNSLKPEDTAVYDCNAVYYSWDGSTWEYGYWGQGTQVTVSS | low polyreactivity
16 | QVQLVESGGGLVQAGGSLRLNCAASGRIFGYNDMGWSRQAPGKERELVAAIDYSAGSTYYADSVKGRFTISRDNAKNTVNLQMNSLKPEDTAVYYCNTDSESSLLSSRGYWGQGTQVTVSS | low polyreactivity
17 | QVQLVESVGGLVQAGGSLRLSCAASGNTFSYNAMGWYRQAPGKERELVAAIRWSGGSTYYADSVKGRFTISRDNAKNTVYLQMNSLKPEDTAVYYCNARYASTNYGWFSYYWGQGTQVTVSS | high polyreactivity
18 | QVQLVESGGGLVQAGGTLRLICAATGRTFDFNAMGWYRQAPGKERELVAAITESGGSTYYADSVKGRFTISRDNAKNTVYLQMNSLKPEDTAVYYCAVAGNYYRDYPEVSYFSIYNYWGQGTQVTVSS | low polyreactivity
19 | QVQLVESGGGLVQAGGSLRLSCAASGRIFRFYAMGWYRQAPRKERELVAAITSGGSTYYADSVKGRFTISRDNAKNTVYLQMNSLKPEDTAVYYCANYYWGQGTQVTVSS | low polyreactivity
20 | QVQLVESGGGLVQAGGSLRLSCAASGSTFIKNAMGWYRQAPGKERELVAAISSSASSTYYADSVKGRFTISRDNAKNTVYLQMNSLKPEDTAVYYCAARASRKYNYWGQGTQVTVSS | high polyreactivity
21 | QVQLVESGGGLVQAGGSLRLSCAASGSIFGDYVMGWYRQAPGKERELVAAINRGGSTYYADSVKGRFTISRDNAKNTVYLQMNSLKPEDTALYYCAAGYPSWYYGYPYDSWGQGTQVTVSS | low polyreactivity

Row | Sequence | polyreactivity (PSR sort gate)
22 | QDQLVESGGGLVQAGGSLRLSCAASGNTYLNAMGWYRQAPAKEREMVAAISKGGADTYYADSVKGRFTISRDNAKYTVYLQMNSLKPEDTAVYYCNADYWFRFGSSVDQVTEDYWGQGTQVTVSS | low polyreactivity
23 | QVQLVESGGGLVQAGGSLRLSCAASGRTFTTYTMGWYRQAPGKERELVASINYRGGRTYYADSVKGRFTISRDNAKNTVYLQMNSLKPEDTAVYYCAYYPYGYDYWGQGTQVTVSS | high polyreactivity
24 | QVQLVESGGGLVQAGGSLRLSCAASGFTIGDYAMGWYRQAPGKERELVAAITYSGGSTYYADSVKGRFTISRDNAKNTVYLQMNSLKPEDTAVYYCNADYASQSGYDYWGQGTQVTVSS | low polyreactivity
25 | QVQLVESGGGLVQAGGSLRLSCAASGLIFSVNAMGWYRQAPGKERELVAAITWSSGRTYYADSVKGRFTISRDNAKNTVYLQMNSLKPEDTAVYYCAAVSYWYGQMYYWGHGTQVTVSS | high polyreactivity
26 | QDQLVESGGGLVQAGGSLRLSCAASGSTLVKYAMGWYRQAPGKERELVARITLNGGRTYYADSVKGRFTISRDNAKNTVYLQMNSLKPVDTAVYYCAKSLPHSTSRDYWGQGTQVTLSS | low polyreactivity
27 | QVQLVESGGGLVQAGGSLRLSCAASGIIFSYYAMGWYIQAPGKERELVAAISSSGVSTNYADSVKGRFTISRDNAKNTVYLQMNSLKPEDTAVYYCNARGYYWYRPYVNSNGGYWGQGTQVTVSS | high polyreactivity
28 | QVQLVESGGGLVQAGGSLRLSCAASGSIFYWYTMGWYRQAPGKERELVAAISSIDGNTYYADSVKGRFTISRDNAKNTVYLQMNSLKPEDTAVYYCAAAYYNTDYYYWGQGTQVTVSS | low polyreactivity
29 | QVQLVESGGGLVQAGGSLRLSCAASGSTYNINAMGWYRQAPGKERELVAAISWSGGSTYYADSVKGRFTISRDNAKNTVYLQMNSLKPEDTAVYYCNALWVWYRGSSVRWVGGYDYWGQGTQVTVSS | high polyreactivity
30 | QVQLVESGGGLVQAGGSLRLSCADSGITLVYDGMGWDIQAPGKERELVAAISWTGGSTFYADSVKGLFTISLDNAKKTVYLQMNSLKPEDTAVYYCAADRGYFYSRIQVDSDYWGQGTQVTVSS | low polyreactivity
31 | QVQLVESGGGLVQAGGSLRLSCAASAFTFKYNVMGWYRQAPGTERELLAAISKRGGNTYYADSVKGRFTISRDNAKNTVYLQMNSLKPEDTAVYYCAADPTSPETSGQGYDYWGQGTQVTVSS | high polyreactivity
32 | QVQLVESGGGLVQAGGSLRLSSAASGSIFIPYAMGWYRQAPGKERELVAAISSSGSTYYADSVKGRFTISRDNAKNTVYFQMNSLKPEDTAVYYCAAAWHTAYWDGSDTLGGGYWGQGTQVTVSS | low polyreactivity
33 | QVQLVESGGGLVQAGGSLRLSCAASGRIFAKNTMGWYRQAPGKERELVAAITWSSGNTDYADSVKGRFTISRDNAKNTVYLQMNSLKPEDTAVYYCNARFYYRPLRFSYDYWGQGTQVTVSS | high polyreactivity
34 | HVQLVESGGGLVQAGGSLRLSCAASGSTFAAYAMGWYRQAPGKERELVAAITKRGGTTYYADSVKGRVTISRDHAKNSVYLQMNSLKPEDTAVYYCAKTRYYSALLHYDYDTWGQGTQVTVST | high polyreactivity
35 | QVQLVESGGGLVQAGGSLRLSCAASGFIFGNNDMGWYRPAPGKERELVAAISNSGGRTYYADSVKGRFTISRDNAKNTVYLQMNSLKPEDTAVYYCAKAYRPPGYDSWGQGTQVTVSS | high polyreactivity
36 | QVQLVESGGGLVQAGGSLRLSCAASGIIFQTYAMGWYRQAPGKERELVAAISRSGGSTYYADSVKGRFTISRDNAKNTVYLQMNSLKPEDTAVYYCAAYGYHVNWLKGNYWGQGTQVTVSS | high polyreactivity
37 | QVQLVESGGGLVQAGGSLRLSCAASGRIFKSYVMGWYRQAPGKERELVAAISWSGGTYYADSVMGRFTNSRDNAKNTVYLQMNCLKPEDTAVYYCAAYYLGSYNPLDYWGQGTQVTVSS | high polyreactivity
38 | QVQLVESGGGIVQAGGSLRLSCAASGSIFFYYAMGWFRPAPGQERELVAAITSSGGTTYYADSVKGRFTISRDNAKNTVYLEMNSLKPEDTAVYDCNALTVGQRDYDYWGQGTQVTVSS | high polyreactivity
39 | QVQLVESVGGLVQAGGSLRLSSAASGRTFKGNAMGCYSQAHGKERELVAVITGSGGSTYYADSVKGRFTISRDNAKNTVYLQMNSLKPEDTAVYYCNKKLQRRSWYVYWGLGTQVTVSS | low polyreactivity
40 | QVQLVESGGGLVQAGGSLRLSCAASGFTITRYAMGWYRQAPGKERELVAAISKSGGSTFYADSVKGRFTISRDNAKNTVYLQMNSLKPEDTAVYYCAKVLRAKNSFDYWGQGTQVTVSS | high polyreactivity
41 | QVQLVESGGGLVQAGGSLRLSCAASGSIFPGNGMGWYRQAPGKEMELVASITSGARTNYADSVKGRFTISRDNAKNTVYFPMNSLIPEDTAVYYCAADIKSSIRRAYDYWGQGSQVTVSS | high polyreactivity
